These results are taken from patent US20240360474 (Scribe Therapeutics Inc., published 2024).

Substitutions are numbered along the chain they refer to.

Common to all, as to test: cleavage_in_vitro
One data set deals with T1, CasX 2 (reference CasX) (Planctomycetes).
T1 chain: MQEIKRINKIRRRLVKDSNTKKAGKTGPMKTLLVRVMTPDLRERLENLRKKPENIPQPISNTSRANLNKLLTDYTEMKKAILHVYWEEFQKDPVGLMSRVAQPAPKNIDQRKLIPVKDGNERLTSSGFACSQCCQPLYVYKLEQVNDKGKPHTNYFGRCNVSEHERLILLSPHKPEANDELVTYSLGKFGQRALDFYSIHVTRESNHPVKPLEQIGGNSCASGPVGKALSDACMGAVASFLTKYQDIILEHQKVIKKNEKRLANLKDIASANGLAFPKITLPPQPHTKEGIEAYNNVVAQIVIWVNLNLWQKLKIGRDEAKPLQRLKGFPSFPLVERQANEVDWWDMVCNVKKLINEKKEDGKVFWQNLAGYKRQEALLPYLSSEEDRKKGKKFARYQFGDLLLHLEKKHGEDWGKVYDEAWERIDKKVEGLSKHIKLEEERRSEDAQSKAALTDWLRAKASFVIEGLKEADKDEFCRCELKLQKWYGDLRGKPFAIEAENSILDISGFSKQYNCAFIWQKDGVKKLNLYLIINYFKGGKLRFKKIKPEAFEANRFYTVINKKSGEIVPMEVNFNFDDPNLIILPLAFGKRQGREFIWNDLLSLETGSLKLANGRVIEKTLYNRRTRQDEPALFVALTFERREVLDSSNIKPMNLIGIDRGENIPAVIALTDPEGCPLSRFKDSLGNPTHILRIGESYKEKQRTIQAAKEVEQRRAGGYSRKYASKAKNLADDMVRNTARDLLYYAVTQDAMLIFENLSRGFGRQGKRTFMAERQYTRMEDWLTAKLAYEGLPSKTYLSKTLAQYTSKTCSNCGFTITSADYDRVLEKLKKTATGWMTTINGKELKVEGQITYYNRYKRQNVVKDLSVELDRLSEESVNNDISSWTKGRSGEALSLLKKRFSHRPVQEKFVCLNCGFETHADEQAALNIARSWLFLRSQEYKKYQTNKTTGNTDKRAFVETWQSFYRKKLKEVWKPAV

The target in the next data set is T2, CasX variant 438 (synthetic construct).
T2 chain: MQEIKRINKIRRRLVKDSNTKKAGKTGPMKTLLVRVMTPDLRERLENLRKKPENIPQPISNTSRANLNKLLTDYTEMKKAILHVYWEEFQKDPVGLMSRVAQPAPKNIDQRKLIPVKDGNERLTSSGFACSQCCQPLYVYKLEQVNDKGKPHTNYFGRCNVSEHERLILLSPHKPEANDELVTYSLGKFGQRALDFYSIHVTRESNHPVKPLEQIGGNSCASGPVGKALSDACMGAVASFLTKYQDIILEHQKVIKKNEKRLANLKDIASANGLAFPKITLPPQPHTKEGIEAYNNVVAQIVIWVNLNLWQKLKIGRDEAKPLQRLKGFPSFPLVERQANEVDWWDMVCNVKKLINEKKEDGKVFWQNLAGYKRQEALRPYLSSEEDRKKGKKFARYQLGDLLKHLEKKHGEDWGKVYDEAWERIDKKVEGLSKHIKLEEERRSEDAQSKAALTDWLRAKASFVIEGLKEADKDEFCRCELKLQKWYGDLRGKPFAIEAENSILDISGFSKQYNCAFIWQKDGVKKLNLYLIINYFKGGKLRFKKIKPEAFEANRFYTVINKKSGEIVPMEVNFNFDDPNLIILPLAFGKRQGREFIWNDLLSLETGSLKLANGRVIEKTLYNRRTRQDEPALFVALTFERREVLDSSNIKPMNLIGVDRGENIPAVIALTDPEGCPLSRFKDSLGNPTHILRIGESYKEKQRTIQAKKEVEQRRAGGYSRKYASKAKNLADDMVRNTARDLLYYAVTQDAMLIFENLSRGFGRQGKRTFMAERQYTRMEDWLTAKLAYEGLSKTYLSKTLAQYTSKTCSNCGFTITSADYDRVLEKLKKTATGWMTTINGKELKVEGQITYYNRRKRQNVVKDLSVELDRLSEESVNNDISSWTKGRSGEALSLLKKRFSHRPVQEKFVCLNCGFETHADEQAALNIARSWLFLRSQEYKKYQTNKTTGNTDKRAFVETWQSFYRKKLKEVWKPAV

The target of the next data set is T3, CasX variant 119 (synthetic construct).
T3 chain: T2 chain with L399F, K404L, V658I, R856Y

A further data set addresses T4, CasX variant 491 (synthetic construct).
T4 chain: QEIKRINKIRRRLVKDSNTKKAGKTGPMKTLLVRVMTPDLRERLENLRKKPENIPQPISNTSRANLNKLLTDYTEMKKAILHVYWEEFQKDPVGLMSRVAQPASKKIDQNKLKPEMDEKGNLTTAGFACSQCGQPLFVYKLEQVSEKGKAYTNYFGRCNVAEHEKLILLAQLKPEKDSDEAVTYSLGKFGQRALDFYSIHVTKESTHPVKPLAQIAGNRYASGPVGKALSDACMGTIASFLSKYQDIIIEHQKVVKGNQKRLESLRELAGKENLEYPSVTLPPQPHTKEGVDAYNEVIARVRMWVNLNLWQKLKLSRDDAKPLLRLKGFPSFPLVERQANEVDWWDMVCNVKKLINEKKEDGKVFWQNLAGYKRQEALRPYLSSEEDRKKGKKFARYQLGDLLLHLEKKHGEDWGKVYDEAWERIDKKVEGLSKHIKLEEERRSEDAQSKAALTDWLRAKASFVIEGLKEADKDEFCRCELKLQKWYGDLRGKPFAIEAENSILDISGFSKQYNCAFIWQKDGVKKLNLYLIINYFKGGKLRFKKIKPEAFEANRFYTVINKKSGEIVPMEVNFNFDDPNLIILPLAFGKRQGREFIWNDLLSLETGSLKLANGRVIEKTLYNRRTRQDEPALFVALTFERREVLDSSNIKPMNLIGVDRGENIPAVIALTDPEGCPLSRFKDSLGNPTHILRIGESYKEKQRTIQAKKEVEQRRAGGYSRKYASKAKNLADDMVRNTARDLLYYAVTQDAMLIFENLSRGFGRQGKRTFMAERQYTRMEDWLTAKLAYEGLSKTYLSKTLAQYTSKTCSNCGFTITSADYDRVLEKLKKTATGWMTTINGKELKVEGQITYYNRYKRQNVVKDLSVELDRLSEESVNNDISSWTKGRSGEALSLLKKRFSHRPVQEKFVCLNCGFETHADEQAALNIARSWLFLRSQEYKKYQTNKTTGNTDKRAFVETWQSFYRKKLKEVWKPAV

B1: gRNA scaffold 174 + spacer 7.37 ; 7.37 CTC PAM target (ssRNA ; dsDNA)
RNA: ACUGGCGCUUUUAUCUGAUUACUUUGAGAGCCAUCACCAGCGACUAUGUCGUAGUGGGUAAAGCUCCCUCUUCGGAGGGAGCAUCAAAGGGGCCGAGAUGUCUCGCUCC
DNA 1: TGAAGCTGACAGCACTCGGGCCGAGATGTCTCGCTCCGTGGCCTTAGCTGTGCTCGCGCT
DNA 2: AGCGCGAGCACAGCTAAGGCCACGGAGCGAGACATCTCGGCCCGAGTGCTGTCAGCTTCA
Consider B1, for which the activity in the data set with CasX 2 (reference CasX) is 0.00929 min⁻¹; with CasX variant 438, 0.212 min⁻¹; with CasX variant 119, 0.303 min⁻¹.

B2: gRNA scaffold 174 + spacer 7.37 ; 7.37 GTC PAM target (ssRNA ; dsDNA)
RNA: B1 RNA
DNA 1: B1 DNA 1 with C15G
DNA 2: B1 DNA 2 with G46C
For B2, the activity with CasX 2 (reference CasX) was 0.00375 min⁻¹; with CasX variant 119 it was 0.0864 min⁻¹.

B3: gRNA scaffold 174 + spacer 7.37 ; 7.37 ATC PAM target (ssRNA ; dsDNA)
RNA: B1 RNA
DNA 1: B1 DNA 1 with C15A
DNA 2: B1 DNA 2 with G46T
As for B3, the figures for the activity with CasX 2 (reference CasX), with CasX variant 438 and with CasX variant 119 were 0.0187 min⁻¹, 0.408 min⁻¹ and 0.54 min⁻¹, respectively.

B4: gRNA scaffold 174 + spacer 7.37 ; 7.37 TTT PAM target (ssRNA ; dsDNA)
RNA: B1 RNA
DNA 1: B1 DNA 1 with C15T, C17T
DNA 2: B1 DNA 2 with G44A, G46A
Take B4: the activity in the data set with CasX variant 491 was 1.33 min⁻¹.
